Experimental data taken from US12404607.

What was measured:
Experiment in all cases: ELISA, antigen coated at 2 ug/mL
[1] = biological target: CoV-2 S (D614G) (SARS-CoV-2) (UniProt P0DTC2)
[2] = biological target: CoV-2 S (R683A, R685A) (SARS-CoV-2) (UniProt P0DTC2)
[3] = biological target: CoV-2 RBD (N354D) (SARS-CoV-2) (UniProt P0DTC2)
[4] = biological target: CoV-2 RBD (N354D, D364Y) (SARS-CoV-2) (UniProt P0DTC2)
[5] = biological target: CoV-2 RBD (W436R) (SARS-CoV-2) (UniProt P0DTC2)
[6] = biological target: CoV-2 RBD (V367F) (SARS-CoV-2) (UniProt P0DTC2)

| Substance | EC50 [1] | EC50 [2] | EC50 [3] | EC50 [4] | EC50 [5] | EC50 [6] |
| --- | --- | --- | --- | --- | --- | --- |
| SARS CoV-2 mAb [SAD-S35] (Acro Biosystems) (antibody) | 0.03 µg/mL | 0.05 µg/mL | 0.04 µg/mL | 0.05 µg/mL | 0.04 µg/mL | 0.04 µg/mL |
| rCIG (recombinant coronavirus-2 immune globulin; recombinant anti-coronavirus 19 hyperimmune gammaglobulin) | 0.05 µg/mL | 0.09 µg/mL | 0.07 µg/mL | 0.08 µg/mL | 0.07 µg/mL | 0.07 µg/mL |
